From patent US12215130 (dated 2025)
Where two headings read alike, the source gives them in different places.

How the values were obtained:
Human serum albumin [1] = target: Human serum albumin (human)
[2] = target: T1, Cynomolgus monkey serum albumin (cynomolgus monkey); assay: BLI, pH 7.4
T1 chain: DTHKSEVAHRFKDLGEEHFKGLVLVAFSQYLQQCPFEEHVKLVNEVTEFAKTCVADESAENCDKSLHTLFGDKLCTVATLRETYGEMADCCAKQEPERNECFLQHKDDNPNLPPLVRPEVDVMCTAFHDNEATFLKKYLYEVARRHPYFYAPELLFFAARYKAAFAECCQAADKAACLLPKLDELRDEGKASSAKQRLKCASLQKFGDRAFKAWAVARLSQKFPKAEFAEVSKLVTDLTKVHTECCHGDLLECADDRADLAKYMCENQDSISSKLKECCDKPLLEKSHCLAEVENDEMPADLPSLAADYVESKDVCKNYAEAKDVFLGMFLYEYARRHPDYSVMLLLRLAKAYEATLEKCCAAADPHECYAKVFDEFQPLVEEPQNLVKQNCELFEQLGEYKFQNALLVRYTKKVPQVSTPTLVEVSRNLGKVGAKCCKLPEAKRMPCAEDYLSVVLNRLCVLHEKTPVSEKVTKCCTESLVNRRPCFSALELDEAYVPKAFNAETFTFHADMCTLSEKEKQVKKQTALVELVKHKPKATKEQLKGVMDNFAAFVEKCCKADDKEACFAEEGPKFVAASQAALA

Human serum albumin [3] = target: Human serum albumin (human); assay: BLI, pH 7.4
[4] = target: T1, Cynomolgus monkey serum albumin; assay: BLI, pH 5.5
Human serum albumin [5] = target: Human serum albumin (human); assay: BLI, pH 5.5

B1: G148-ABD-wt (peptide)
chain: LAEAKVLANRELDKYGVSDYYKNLINNAKTVEGVKALIDEILAALP
Which Kd (Human serum albumin [1]) does the source give for B1 here?
The Kd was about 1.2 nM.

B2: AWT-P367 (antibody, V domains shown)
VH: QVQLVESGGGLVQPGGSLRLSCAASGSTWSINTLAWYRQAPGKQRDLVARISSGGSTHYADSVKGRFTVSRDNAENTLVLQMNSLKPEDTAVYYCYAQSTWYPPSWGQGTQVTVSS
Which Kd [2] does the source give for B2 here?
Its Kd is 18.9 nM.

And the Kd (Human serum albumin [3])?
Its Kd is 29.6 nM.

What about the Kd [4] of the same binder?
The Kd was 20.5 nM.

What about the Kd (Human serum albumin [5]) of the same binder?
Its Kd is 9.6 nM.

B3: AWT-P610 (designed binder)
chain: QVQLVESGGGVVQPGGSLRLSCAASGFAFRGFGMSWVRQAPGKGLEWVSSINNGGSDTYYADSVKGRFTISRDNSKNTLYLQMNSLRAEDTAVYYCAIGGPGASPSGQGTQVTVSS
Which Kd [2] does the source give for B3 here?
Its Kd is 49.6 nM.

And the Kd (Human serum albumin [3])?
The Kd was 43 nM.

And the Kd [4]?
Its Kd is 47.1 nM.

And the Kd (Human serum albumin [5])?
Its Kd is 39.8 nM.
